Target: I53A FLAG-Pen-2 (human) (UniProt Q9NZ42)
Experiment: co-IP

UniProt Q9NZ42, sequence (Q9NZ42 whole entry I53A): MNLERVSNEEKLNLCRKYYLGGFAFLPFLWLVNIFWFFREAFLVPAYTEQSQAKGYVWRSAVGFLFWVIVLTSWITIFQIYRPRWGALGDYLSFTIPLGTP

PS1-CTF associated with immunoprecipitated Pen-2, percent of wt: < 40 % of wt
Substance: presenilin 1 C-terminal fragment (PS1-CTF) (domain or fragment)
